Results from the supplement of paper PMC9876800.

System: peptide library, one residue held at a place counted from the S/T acceptor
Test: relative phosphorylation of the sub-library (ratio to the mean residue at this position); human; higher = residue favoured
How it was run: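 Purified recombinant kinases (human or orthologue constructs) were incubated in 384-well plates with biotinylated degenerate peptide sub-libraries, each fixing one residue at one position around a central Ser/Thr. Peptides were at 50 μM, with 50 μM ATP spiked with γ-32P-ATP, for 90 min under kinase-specific conditions. Spots on streptavidin membranes were phosphorimaged and quantified by densitometry. Relative sub-library phosphorylation is a ratio to the mean residue at that position.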

Sequence of RPS6KA6, construct: Full length (Q9UK32 whole entry, looked up): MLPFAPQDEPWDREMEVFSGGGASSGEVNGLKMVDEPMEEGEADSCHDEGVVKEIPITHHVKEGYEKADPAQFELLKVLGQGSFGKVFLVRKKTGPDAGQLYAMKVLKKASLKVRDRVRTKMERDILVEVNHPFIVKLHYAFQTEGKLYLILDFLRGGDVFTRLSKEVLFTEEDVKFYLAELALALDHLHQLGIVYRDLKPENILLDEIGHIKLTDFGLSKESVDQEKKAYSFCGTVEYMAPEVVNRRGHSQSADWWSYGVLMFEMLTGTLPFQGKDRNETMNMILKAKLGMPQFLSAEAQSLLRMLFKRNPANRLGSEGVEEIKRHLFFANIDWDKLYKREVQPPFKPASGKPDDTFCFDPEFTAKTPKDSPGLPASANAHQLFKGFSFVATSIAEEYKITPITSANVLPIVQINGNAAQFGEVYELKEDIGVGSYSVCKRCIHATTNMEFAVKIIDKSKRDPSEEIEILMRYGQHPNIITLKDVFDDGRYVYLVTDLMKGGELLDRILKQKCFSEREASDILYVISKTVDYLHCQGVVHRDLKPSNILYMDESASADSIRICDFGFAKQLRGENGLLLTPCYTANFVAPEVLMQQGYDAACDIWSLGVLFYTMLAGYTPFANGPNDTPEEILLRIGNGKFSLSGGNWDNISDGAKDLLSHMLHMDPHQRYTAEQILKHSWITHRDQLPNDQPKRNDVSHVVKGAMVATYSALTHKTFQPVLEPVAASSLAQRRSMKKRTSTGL

RPS6KA6, construct: Full length (from UniProt Q9UK32)
relative phosphorylation
Conditions	at +1	at +2	at +3	at +4	at -1	at -2	at -3	at -4	at -5
A fixed	0.637	0.911	0.754	0.964	0.769	0.556	0.382	0.988	0.874
D fixed	0.481	1.09	1.24	1.3	0.622	0.544	0.444	0.785	0.613
E fixed	1.44	0.799	1.65	1.36	0.635	0.549	0.417	0.96	0.608
F fixed	1.16	0.623	0.837	0.671	0.525	0.463	0.251	0.582	0.7
G fixed	0.574	0.967	1.23	1.37	1.1	0.812	0.527	1.13	0.932
H fixed	0.943	2.06	1.29	1.12	0.934	1.04	0.564	0.915	1
I fixed	1.49	0.54	0.708	0.609	0.262	0.364	0.205	0.479	0.433
K fixed	1.14	0.761	1.12	1.03	2.1	2.65	1.75	1.95	2.56
L fixed	1.1	0.498	0.815	0.648	0.657	1.01	0.245	0.563	0.539
M fixed	1.08	0.594	0.717	0.82	0.863	0.522	0.314	0.8	0.545
N fixed	0.986	1.13	1.1	1.04	1.49	0.675	0.541	0.822	0.687
P fixed	0.407	0.498	0.699	1.66	2.81	0.914	1.11	1.49	0.755
Q fixed	1.17	0.724	1.08	1.04	1	0.644	0.548	0.917	0.657
R fixed	0.949	1.31	1.01	0.906	1.53	5.3	8.88	2.69	4.15
V fixed	1.78	0.575	0.696	0.625	0.36	0.265	0.208	0.568	0.538
W fixed	0.716	1.58	0.975	1.03	0.468	0.27	0.286	0.681	0.705
Y fixed	0.948	2.34	1.07	0.81	0.872	0.424	0.325	0.676	0.697
pThr fixed	2.29	1.05	1.56	2.31	0.471	0.51	0.399	0.692	0.543
pTyr fixed	1.69	1.18	1.86	1.37	0.705	0.517	0.442	0.645	0.647
